Measurements published in publication PMC12212125, “Constitutively active Arabidopsis cryptochrome two alleles identified using yeast selection and deep mutational scanning” (The Journal of Biological Chemistry, 2025).
Each block holds one molecule with its values, some of them ahead of it.

Experiments:
[1] = molecular target: T1, pCRY-PHR (plant cryptochrome pCRY, PHR domain) (Chlamydomonas reinhardtii, UniProt Q42696, D393S); assay: UV-vis absorbance and time-resolved UV-vis difference spectroscopy of purified protein; assay type: binding; conditions: 50 mM phosphate pH 7.8, 100 mM NaCl, 3 mM ATP, 1% glycerol, 10 °C, with or without 2 mM DTT; co-purified chromophore; time-resolved spectra at 13 °C without DTT
T1 construct: gene CPH1; PHR domain, amino acids 1-504, N-terminal His6 and C-terminal StrepII tags (printed for D393S), E. coli BL21(DE3), pET-28a(+); theoretical mass 59 kDa, wild type monomeric in the dark
T1 sequence (Q42696 entry or part of it D393S): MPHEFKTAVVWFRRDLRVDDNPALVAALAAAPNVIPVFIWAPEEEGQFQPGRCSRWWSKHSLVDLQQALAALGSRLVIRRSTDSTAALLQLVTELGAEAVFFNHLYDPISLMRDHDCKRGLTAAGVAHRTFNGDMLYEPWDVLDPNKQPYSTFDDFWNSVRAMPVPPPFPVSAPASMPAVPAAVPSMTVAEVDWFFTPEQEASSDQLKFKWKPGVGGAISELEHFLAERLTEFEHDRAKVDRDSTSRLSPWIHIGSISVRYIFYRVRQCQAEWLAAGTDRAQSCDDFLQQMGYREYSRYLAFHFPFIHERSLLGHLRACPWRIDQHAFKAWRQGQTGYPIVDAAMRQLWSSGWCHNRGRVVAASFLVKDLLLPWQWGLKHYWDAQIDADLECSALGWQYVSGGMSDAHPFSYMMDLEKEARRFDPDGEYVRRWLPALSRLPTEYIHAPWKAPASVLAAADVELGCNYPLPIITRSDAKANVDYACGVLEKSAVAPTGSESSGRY

[2] = molecular target: pCRY-PHR D393S (amino acids 1-504) (Chlamydomonas reinhardtii); assay: SEC; Superdex 200 Increase 10/300 GL, under light exclusion at 4 °C, 50 mM Tris pH 7.8, 100 mM NaCl, 1 mM ATP, 1 mM MgCl2; samples at OD450 = 1; apparent masses from calibration
[3] = molecular target: Region II mutations (V367M, K368E, Y399S, S401F, P405L) placed in the CRY2PHR background; assay: two-hybrid; BD-CRY2PHR (1-498) variants and AD-CIB1, AH109 x Y187, beta-galactosidase reporter (Miller Units, ONPG), dark for 2 h
[4] = molecular target: T2, CRY2PHR (residues 1-498 of CRY2, lacking the CCE), Gal4BD fusion, wild type (Arabidopsis thaliana, UniProt Q96524 1-498); assay: two-hybrid; BD-CRY2PHR (1-498) variants and AD-CIB1, AH109 x Y187, beta-galactosidase reporter (Miller Units, ONPG), light for 2 h; conditions: partners not purified
T2 construct: Cryptochrome 2 (CRY2), Arabidopsis thaliana, photolyase homology region, residues 1-498; also called BD-CRY2PHR; pDBTrp-CRY2PHR; source: yeast two-hybrid fusion (AH109 x Y187)
T2 sequence (Q96524 1-498): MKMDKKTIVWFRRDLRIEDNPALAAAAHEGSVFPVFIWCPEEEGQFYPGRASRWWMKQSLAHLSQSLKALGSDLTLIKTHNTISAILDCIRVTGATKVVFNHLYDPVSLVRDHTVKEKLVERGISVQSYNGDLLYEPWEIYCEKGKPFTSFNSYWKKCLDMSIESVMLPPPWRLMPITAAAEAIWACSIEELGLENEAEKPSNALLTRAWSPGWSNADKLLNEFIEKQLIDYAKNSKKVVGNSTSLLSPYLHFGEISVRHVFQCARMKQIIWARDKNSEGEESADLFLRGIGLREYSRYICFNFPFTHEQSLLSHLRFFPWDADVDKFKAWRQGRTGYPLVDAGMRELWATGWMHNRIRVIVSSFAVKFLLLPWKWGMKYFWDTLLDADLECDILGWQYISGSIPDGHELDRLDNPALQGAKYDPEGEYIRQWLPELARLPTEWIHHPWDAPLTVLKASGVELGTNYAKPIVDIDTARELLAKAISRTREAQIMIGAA

Molecule: Cc1cc2nc3c(=O)[nH]c(=O)nc-3n(C[C@H](O)[C@H](O)[C@H](O)COP(=O)(O)OP(=O)(O)OC[C@H]3O[C@@H](n4cnc5c(N)ncnc54)[C@H](O)[C@@H]3O)c2cc1C [FAD]
UV-vis absorbance and time-resolved UV-vis difference spectroscopy of purified p [1]: The D393S mutant forms homomers in the dark with oxidized FAD bound

B1: CRYPTOCHROME-… BASIC-HELIX-LOOP-HELIX 1 (CIB1), Gal4AD fusion (natural protein)
chain: MNGAIGGDLLLNFPDMSVLERQRAHLKYLNPTFDSPLAGFFADSSMITGGEMDSYLSTAGLNLPMMYGETTVEGDSRLSISPETTLGTGNFKKRKFDTETKDCNEKKKKMTMNRDDLVEEGEEEKSKITEQNNGSTKSIKKMKHKAKKEENNFSNDSSKVTKELEKTDYIHVRARRGQATDSHSIAERVRREKISERMKFLQDLVPGCDKITGKAGMLDEIINYVQSLQRQIEFLSMKLAIVNPRPDFDMDDIFAKEVASTPMTVVPSPEMVLSGYSHEMVHSGYSSEMVNSGYLHVNPMQQVNTSSDPLSCFNNGEAPSMWDSHVQNLYGNLGV
fold higher basal (dark) interaction than wild-type CRY2PHR (beta-galactosidase reporter) [3]: 4 to 7 fold

Other lines, results leading:

stoichiometry N [2]: 2
Molecule: pCRY-PHR D393S (amino acids 1-504) (domain or fragment)

fold increase of interaction (beta-galactosidase reporter) in light over dark [4]: 4 fold
B2: CRYPTOCHROME-INTERACTING BASIC-HELIX-LOOP-HELIX 1 (CIB1), Gal4AD fusion (natural protein, Arabidopsis thaliana, UniProt Q8GY61 1-335, looked up)
chain: MNGAIGGDLLLNFPDMSVLERQRAHLKYLNPTFDSPLAGFFADSSMITGGEMDSYLSTAGLNLPMMYGETTVEGDSRLSISPETTLGTGNFKKRKFDTETKDCNEKKKKMTMNRDDLVEEGEEEKSKITEQNNGSTKSIKKMKHKAKKEENNFSNDSSKVTKELEKTDYIHVRARRGQATDSHSIAERVRREKISERMKFLQDLVPGCDKITGKAGMLDEIINYVQSLQRQIEFLSMKLAIVNPRPDFDMDDIFAKEVASTPMTVVPSPEMVLSGYSHEMVHSGYSSEMVNSGYLHVNPMQQVNTSSDPLSCFNNGEAPSMWDSHVQNLYGNLGV
notes: CIB1, transcription factor, Arabidopsis thaliana; also called GalAD-CIB1; Gal4AD-CIB1; source: yeast two-hybrid fusion (MaV203; Y187, mated to AH109)
